How the values were obtained:
[1] = test system: CC(C)=CCC/C(C)=C/CC/C(C)=C/CO[P@@](=O)(O)OP(=O)(O)O; assay: Steady-state kinetics of purified farnesene synthase variant FS_B_5.3; type: biochemical, Artemisia annua; details: other: purified enzyme, 20.0 °C
[2] = test system: CC(C)=CCC/C(C)=C/CC/C(C)=C/CO[P@@](=O)(O)OP(=O)(O)O; assay: cells, lysate or membranes named; details: other: purified enzyme, steady-state; 20.0 °C

Sequence of Artemisia annua β-farnesene synthase, wild type, SEQ ID NO: 111 (FS_Aa_Ec coding sequence, SEQ ID NO: 62) (Artemisia annua) (chain, as listed by the source): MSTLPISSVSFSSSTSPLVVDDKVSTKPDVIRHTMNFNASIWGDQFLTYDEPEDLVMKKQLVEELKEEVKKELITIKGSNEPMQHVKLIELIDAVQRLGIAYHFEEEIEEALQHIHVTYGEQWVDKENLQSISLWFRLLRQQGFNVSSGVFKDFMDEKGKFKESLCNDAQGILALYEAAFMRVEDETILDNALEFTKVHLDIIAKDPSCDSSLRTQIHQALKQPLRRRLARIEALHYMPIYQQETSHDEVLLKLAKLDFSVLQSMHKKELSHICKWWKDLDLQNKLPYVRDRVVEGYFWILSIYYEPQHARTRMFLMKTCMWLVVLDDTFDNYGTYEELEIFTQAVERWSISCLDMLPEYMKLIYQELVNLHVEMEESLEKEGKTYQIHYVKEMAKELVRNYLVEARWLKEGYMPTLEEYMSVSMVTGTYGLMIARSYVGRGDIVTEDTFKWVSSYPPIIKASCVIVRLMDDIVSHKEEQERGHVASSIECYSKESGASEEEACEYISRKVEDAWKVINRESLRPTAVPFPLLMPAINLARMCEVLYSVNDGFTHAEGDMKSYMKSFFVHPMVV

Substance | Km [1] [µM] | kcat [1] [s⁻¹] | Km [2] [µM] | kcat [2] [s⁻¹]
Artemisia annua β-farnesene synthase (SEQ ID NO: 111) variant FS_B_5.3 F11S/V24D/M35T/T196S/Y288F/T319S/I434T/T446N/I460V/V467I (FS_B_5.3_Ec; parent coding sequence FS_B, SEQ ID NO: 119) (Artemisia annua; F11S/I437T/I463V/M35T/T196S/T319S/T449N/V24D/V470I/Y288F) | 1.18 ± 0.44 | 0.093 ± 0.009 |  | 
Artemisia annua β-farnesene synthase, wild type, SEQ ID NO: 111 (FS_Aa_Ec coding sequence, SEQ ID NO: 62) (Artemisia annua) |  |  | 0.58 ± 0.19 | 0.071

From patent US8236512B1, “Methods of developing terpene synthase variants” (Amyris, Inc., priority 2011, dated 2012)
